“And” between values parts separate entries of the source, which are not always exact repeats. Identical values can stand only once.
What was measured:
[1] = Microcalorimetry (DSC) of HEWL dispersions stored in 80% w/w CDHP or 0.1M NaOAc; assay type: physicochemical; parameters: Thermal transition midpoint temperature of HEWL: unit not given here
Experimental: The samples were formulated in 2 ml silanized glass vials to reduce protein-surface interactions, covered with cap and septa, wrapped with parafilm to ensure no drying out of the sample, and stored away from sunlight. They were stirred for at least 24 hours until a homogeneous distribution of protein was obtained. […] The 35 silanized vials were exposed to UV light for 24 hours to ensure sterility. Control samples at equivalent concentrations were also prepared in triplicates in 0.1M NaOAc buffer (pH 4). Samples were tested for thermal stability via microcalorimetry and functional activity via the micrococcus lysodeikticus assay at monthly intervals.
A MicroCal VP-DSC microcalorimeter was used to assess thermal structural stability of all samples. Baseline repeatability was established with a minimum of 5 buffer-buffer scans. […] HEWL solutions were tested similarly with no dilution of the samples. Between samples, during the filling period of 15° C. to 25° C., the sample cell of the DSC was flushed with at least 25 ml distilled H2O, then at least 15 ml NaOAc to ensure no sample residue remained behind. Thermal profiles, enthalpy changes, and transition temperatures were obtained with Origin software.
All formulations were diluted to 0.1-0.5 mg/ml for testing. This allows one to observe how well protein thermal stability and structural integrity is maintained following storage and then dilution into a solution of similar composition as the environment of the body.

[2] = Microcalorimetry (DSC) of 1 mg/ml HEWL solutions in 0-40% w/w CDHP or 20% choline chloride in 0.1M NaOAc; assay type: physicochemical
Experimental: All samples were prepared in triplicate. A MicroCal VP-DSC microcalorimeter was used to assess thermal structural stability of all samples. […] HEWL solutions were tested similarly with no dilution of the samples. Between samples, during the filling period of 15° C. to 25° C., the sample cell of the DSC was flushed with at least 25 ml distilled H2O, then at least 15 ml NaOAc to ensure no sample residue remained behind. Thermal profiles, enthalpy changes, and transition temperatures were obtained with Origin software.

[3] = stored at 100 mg/ml in Choline dhp, 1 month
[4] = stored at 100 mg/ml in Choline dhp, 2 months
[5] = stored at 100 mg/ml in Choline dhp, 3 months
[6] = stored at 100 mg/ml in Choline dhp, 4 months
[7] = stored at 100 mg/ml in Choline dhp, 5 months
[8] = 20% w/w Choline Chloride in 0.1M NaOAc

What does the source list for “HEWL: hen egg white lysozyme (HEWL), a well characterized protein, purchased from Worthington Biochem”?
Enthalpy of unfolding of HEWL [1, 3]: 89.97 kcal/mol and 89.606 kcal/mol and 87.876 kcal/mol; Thermal transition midpoint temperature of HEWL [1, 3]: 346.41 and 346.54 and 346.44; Enthalpy of unfolding of HEWL [1, 4]: 75.132 kcal/mol and 76.824 kcal/mol and 77.544 kcal/mol; Thermal transition midpoint temperature of HEWL [1, 4]: 346.42 and 346.43 and 346.47; Enthalpy of unfolding of HEWL [1, 5]: 55.235 kcal/mol and 57.272 kcal/mol and 54.9 kcal/mol; Thermal transition midpoint temperature of HEWL [1, 5]: 346.39 and 346.37; Enthalpy of unfolding of HEWL [1, 6]: 45.2295 kcal/mol and 45.5805 kcal/mol and 49.716 kcal/mol; Thermal transition midpoint temperature of HEWL [1, 6]: 346.3 and 346.35 and 346.37; Enthalpy of unfolding of HEWL [1, 7]: 38.9 kcal/mol and 36.4 kcal/mol and 39.3 kcal/mol; Thermal transition midpoint temperature of HEWL [1, 7]: 346.29 and 346.02 and 346.35; Thermal transition midpoint temperature of HEWL ([1]; stored at 100 mg/ml in NaOAc, 0 months): 346.92 and 346.45 and 347.06; Thermal transition midpoint temperature of HEWL ([1]; stored at 100 mg/ml in NaOAc, 1 month): 345.92 and 346.17 and 345.84; Thermal transition midpoint temperature of HEWL ([1]; stored at 100 mg/ml in NaOAc, 2 months): 345.78 and 346 and 345.69; Thermal transition midpoint temperature of HEWL ([1]; stored at 100 mg/ml in NaOAc, 3 months): 345.79 and 345.9 and 345.66; Thermal transition midpoint temperature of HEWL ([1]; stored at 100 mg/ml in NaOAc, 4 months): 345.47 and 345.41 and 345.51; Thermal transition midpoint temperature of HEWL ([1]; stored at 100 mg/ml in NaOAc, 5 months): 345.39 and 345.41; Gibbs free energy change at 25 C. ([2]; 0% w/w CDHP): 15.57794 kcal/mol and 14.4963 kcal/mol and 15.03024 kcal/mol; Tm ([2]; 0% w/w CDHP in 0.1M NaOAc): 75.18 °C and 75.19 °C and 75.25 °C; ΔH ([2]; 0% w/w CDHP in 0.1M NaOAc): 104.019 kcal/mol and 107.8 kcal/mol and 100.216 kcal/mol; ΔS ([2]; 0% w/w CDHP in 0.1M NaOAc): 298.62 cal/mol K and 309.47 cal/mol K and 287.65 cal/mol K; Gibbs free energy change at 25 C. ([2]; 5% w/w CDHP): 15.91862 kcal/mol and 15.48014 kcal/mol and 14.73002 kcal/mol; Tm ([2]; 5% w/w CDHP in 0.1M NaOAc): 76.08 °C and 76.07 °C and 75.4 °C; ΔH ([2]; 5% w/w CDHP in 0.1M NaOAc): 100.408 kcal/mol and 108.54 kcal/mol and 106.838 kcal/mol; ΔS ([2]; 5% w/w CDHP in 0.1M NaOAc): 287.51 cal/mol K and 310.81 cal/mol K and 306.57 cal/mol K; Gibbs free energy change at 25 C. ([2]; 10% w/w CDHP): 15.05244 kcal/mol and 16.93442 kcal/mol and 15.29508 kcal/mol; Tm ([2]; 10% w/w CDHP in 0.1M NaOAc): 76.08 °C and 76.10 °C and 77.09 °C; ΔH ([2]; 10% w/w CDHP in 0.1M NaOAc): 104.26 kcal/mol and 102.581 kcal/mol and 113.549 kcal/mol; ΔS ([2]; 10% w/w CDHP in 0.1M NaOAc): 298.54 cal/mol K and 293.72 cal/mol K and 324.21 cal/mol K; Gibbs free energy change at 25 C. ([2]; 20% w/w CDHP): 18.36296 kcal/mol and 17.40526 kcal/mol and 17.75496 kcal/mol; Tm ([2]; 20% w/w CDHP in 0.1M NaOAc): 78.82 °C and 78.94 °C and 78.79 °C; ΔH ([2]; 20% w/w CDHP in 0.1M NaOAc): 115.791 kcal/mol and 119.528 kcal/mol and 113.549 kcal/mol; ΔS ([2]; 20% w/w CDHP in 0.1M NaOAc): 328.98 cal/mol K and 339.48 cal/mol K and 322.63 cal/mol K; Gibbs free energy change at 25 C. ([2]; 20% w/w Choline Chloride): 13.3979 kcal/mol and 12.59732 kcal/mol and 12.72542 kcal/mol; Tm [2, 8]: 72.47 °C and 72.62 °C and 72.36 °C; ΔH [2, 8]: 92.354 kcal/mol and 96.972 kcal/mol and 91.615 kcal/mol; ΔS [2, 8]: 267.21 cal/mol K and 280.45 cal/mol K and 265.16 cal/mol K; Gibbs free energy change at 25 C. ([2]; 30% tw/w CDHP): 20.716 kcal/mol and 17.0974 kcal/mol and 22.40708 kcal/mol; Tm ([2]; 30% w/w CDHP in 0.1M NaOAc): 81.86 °C and 82.00 °C and 81.80 °C; ΔH ([2]; 30% w/w CDHP in 0.1M NaOAc): 139.533 kcal/mol and 128.741 kcal/mol and 106.557 kcal/mol; ΔS ([2]; 30% w/w CDHP in 0.1M NaOAc): 393.04 cal/mol K and 362.5 cal/mol K and 300.2 cal/mol K; Gibbs free energy change at 25 C. ([2]; 40% w/w CDHP): 25.634 kcal/mol and 23.8304 kcal/mol and 24.0018 kcal/mol; Tm ([2]; 40% w/w CDHP in 0.1M NaOAc): 86.27 °C and 86.39 °C and 86.37 °C; ΔH ([2]; 40% w/w CDHP in 0.1M NaOAc): 140.49 kcal/mol and 149.751 kcal/mol and 139.216 kcal/mol; ΔS ([2]; 40% w/w CDHP in 0.1M NaOAc): 390.9 cal/mol K and 416.5 cal/mol K and 307.2 cal/mol K

Source: US9289381B2, “Stabilization and storage of biological pharmaceutical compositions” (The University of North Carolina at Charlotte, priority 2009, dated 2016)
